*1 amine or outer side, *2 acyl side, *3 side chain or, on linkers, in order; H or OH if unused. Where no end group is shown, it is not given here. Side-chain parts run from the residue outwards. [ ]: non-standard residue; d: D form. The star is where a group is joined. code 2xAEEA = O=C(COCCOCCN[*:1])NCCOCCOCC(=O)[*:2]; C20 diacid = O=C(O)CCCCCCCCCCCCCCCCCCC(=O)*; γGlu = O=C(O)[C@H](CCC(=O)[*:2])N[*:1]; Desaminohistidyl = O=C(CCc1c[nH]cn1)*; Trx = NC[C@H]1CC[C@H](C(=O)O)CC1; code LysOEG = not defined here; Lys(Bis) = not defined here; AEEA = NCCOCCOCC(=O)O; Aib = CC(C)(N)C(=O)O
B1: [Aib8,Glu22,Arg26,Arg34]-GLP-1-(7-37)-peptidyl-Gly-Gly-Gly-Ser-N{Epsilon}[(2S)-2,6-bis[[2-[2-[2-[[2-[2-[2-[[(4S)-4-carboxy-4-[[4-[(19-carboxynonadecanoylamino)m … (peptide)
peptide: H[Aib]EGTFTSDVSSYLEEQAAREFIAWLVRGRGGGGSK([code LysOEG-AEEA-γGlu-Trx-C20 diacid)(OEG-AEEA-γGlu-Trx-C20 diacid])
modifications: reading uncertain
notes: Side chain read from the name: eps-Lys(Bis) branched linker, each leg C20 diacid-Trx-gGlu-2xOEG
B2: [Aib8,Glu22,Arg26,Arg34]-GLP-1-(7-37)-peptidyl-Ser-N{Epsilon}[(2S)-2,6-bis[[2-[2-[2[[2-[2-[2-[[(4S)-4-carboxy-4-[[4-[(19-carboxynonadecanoylamino)methyl]cyclohe … (peptide)
peptide: H[Aib]EGTFTSDVSSYLEEQAAREFIAWLVRGRGSK([Lys(Bis)-code 2xAEEA-AEEA-γGlu-Trx-C20 diacid])
modifications: reading uncertain; also: printed as [Aib8,Glu22,Arg26,Arg34]-GLP-1-(7-37)-peptidyl-Ser-N{Epsilon}[(2S)-2,6-bis[[2-[2-[2[[2-[2-[2-[[(4S)-4-carboxy-4-[[4-[(19-carboxynonadecanoylamino)methyl]cyclohexanecarbonyl]amino]butanoyl]amino]ethoxy]ethoxy]acetyl]amino]ethoxy]ethoxy]acetyl]amino]hexanoyl]Lys
notes: as for B1
B3: N{Alpha}([Aib8,Glu22,Arg26,Arg34]-GLP-1-(7-37)-peptidyl)-N{Epsilon}[(2S)-2,6-bis[[2-[2-[2-[[2-[2-[2-[[(4S)-4-carboxy-4-(19-carboxynonadecanoylamino)butanoyl]ami … (peptide)
peptide: H[Aib]EGTFTSDVSSYLEEQAAREFIAWLVRGRGK([code LysOEG-AEEA-γGlu-C20 diacid)(OEG-AEEA-γGlu-C20 diacid])
modifications: reading uncertain; also: printed as N{Alpha}([Aib8,Glu22,Arg26,Arg34]-GLP-1-(7-37)-peptidyl)-N{Epsilon}[(2S)-2,6-bis[[2-[2-[2-[[2-[2-[2-[[(4S)-4-carboxy-4-(19-carboxynonadecanoylamino)butanoyl]amino]ethoxy]ethoxy]acetyl]amino]ethoxy]ethoxy]acetyl]amino]hexanoyl]Lys
notes: Side chain read from the name: eps-Lys(Bis) branched linker, each leg C20 diacid-gGlu-2xOEG
B4: [Imp7,Aib8,Glu22,Arg26,Arg34]-GLP-1-(7-37)-peptidyl-Gly-N{Epsilon}[(2S)-2,6-bis[[2-[2-[2-[[2-[2-[2-[[2-[2-[2-[[2-[2-[2-[[(4S)-4-carboxy-4-[[4-[(19-carboxynonade … (peptide)
peptide: [Desaminohistidyl][Aib]EGTFTSDVSSYLEEQAAREFIAWLVRGRGGK([Lys(Bis)-code 2xAEEA-AEEA-AEEA-AEEA-γGlu-Trx-C20 diacid])
modifications: reading uncertain; also: printed as [Imp7,Aib8,Glu22,Arg26,Arg34]-GLP-1-(7-37)-peptidyl-Gly-N{Epsilon}[(2S)-2,6-bis[[2-[2-[2-[[2-[2-[2-[[2-[2-[2-[[2-[2-[2-[[(4S)-4-carboxy-4-[[4-[(19-carboxynonadecanoylamino)methyl]cyclohexanecarbonyl]amino]butanoyl]amino]ethoxy]ethoxy]acetyl]amino]ethoxy]ethoxy]acetyl]amino]ethoxy]ethoxy]acetyl]amino]ethoxy]ethoxy]acetyl]amino]hexanoyl]Lys
notes: Side chain read from the name: eps-Lys(Bis) branched linker, each leg C20 diacid-Trx-gGlu-4xOEG
B5: N{Alpha}([Aib8,Glu22,Arg26,Arg34]-GLP-1-(7-37)-peptidyl)-N{Epsilon}[(2S)-2,6-bis[[2-[2-[2-[[2-[2-[2-[[(4S)-4-carboxy-4-[[4-[(19-carboxynonadecanoylamino)methyl] … (peptide)
peptide: H[Aib]EGTFTSDVSSYLEEQAAREFIAWLVRGRGK([code LysOEG-AEEA-γGlu-Trx-C20 diacid)(OEG-AEEA-γGlu-Trx-C20 diacid])
modifications: reading uncertain; also: printed as N{Alpha}([Aib8,Glu22,Arg26,Arg34]-GLP-1-(7-37)-peptidyl)-N{Epsilon}[(2S)-2,6-bis[[2-[2-[2-[[2-[2-[2-[[(4S)-4-carboxy-4-[[4-[(19-carboxynonadecanoylamino)methyl]cyclohexanecarbonyl]amino]butanoyl]amino]ethoxy]ethoxy]acetyl]amino]ethoxy]ethoxy]acetyl]amino]hexanoyl]Lys
notes: as for B1
B6: N{Alpha}([Aib8,Glu22,Arg26,Arg34,Pro37]-GLP-1-(7-37)-peptidyl)-N{Epsilon}[(2S)-2,6-bis[[2-[2-[2-[[2-[2-[2-[[2-[2-[2-[[2-[2-[2-[[2-[2-[2-[[2-[2-[2-[[(4S)-4-carbo … (peptide)
peptide: H[Aib]EGTFTSDVSSYLEEQAAREFIAWLVRGRPK([code LysOEG-AEEA-AEEA-AEEA-AEEA-AEEA-γGlu-Trx-C20 diacid)(OEG-AEEA-AEEA-AEEA-AEEA-AEEA-γGlu-Trx-C20 diacid])
modifications: reading uncertain
notes: Side chain read from the name: eps-Lys(Bis) branched linker, each leg C20 diacid-Trx-gGlu-6xOEG
B7: N{Alpha}([Aib8,Glu22,Arg26,Arg34]-GLP-1-(7-37)-peptidyl)-N{Epsilon}[(2S)-2,6-bis[[2-[2-[2-[[2-[2-[2-[[(4S)-4-carboxy-4-[[1-(19-carboxynonadecanoyl)piperidine-4- … (peptide)
peptide: H[Aib]EGTFTSDVSSYLEEQAAREFIAWLVRGRGK
modifications: not fully specified (residue 32); printed as N{Alpha}([Aib8,Glu22,Arg26,Arg34]-GLP-1-(7-37)-peptidyl)-N{Epsilon}[(2S)-2,6-bis[[2-[2-[2-[[2-[2-[2-[[(4S)-4-carboxy-4-[[1-(19-carboxynonadecanoyl)piperidine-4-carbonyl]amino]butanoyl]amino]ethoxy]ethoxy]acetyl]amino]ethoxy]ethoxy]acetyl]amino]hexanoyl]Lys
notes: Side chain read from the name: eps-Lys(Bis) branched linker, each leg C20 diacid-Inp-gGlu-2xOEG
B8: [Aib8,Glu22,Arg26,Arg34]-GLP-1-(7-37)-peptidyl-Gly-Ser-N{Epsilon}[(2S)-2,6-bis[[2-[2-[2-[[2-[2-[2-[[(4S)-4-carboxy-4-[[4-[(19-carboxynonadecanoylamino)methyl]cy … (peptide)
peptide: H[Aib]EGTFTSDVSSYLEEQAAREFIAWLVRGRGGSK([code LysOEG-AEEA-γGlu-Trx-C20 diacid)(OEG-AEEA-γGlu-Trx-C20 diacid])
modifications: reading uncertain; also: printed as [Aib8,Glu22,Arg26,Arg34]-GLP-1-(7-37)-peptidyl-Gly-Ser-N{Epsilon}[(2S)-2,6-bis[[2-[2-[2-[[2-[2-[2-[[(4S)-4-carboxy-4-[[4-[(19-carboxynonadecanoylamino)methyl]cyclohexanecarbonyl]amino]butanoyl]amino]ethoxy]ethoxy]acetyl]amino]ethoxy]ethoxy]acetyl]amino]hexanoyl]Lys
notes: as for B1
B9: [Aib8,Glu22,Arg26,Arg34]-GLP-1-(7-37)-peptidyl-Ala-Glu-Ala-Pro-N{Epsilon}[(2S)-2,6-bis[[2-[2-[2-[[2-[2-[2-[[(4S)-4-carboxy-4-[[4-[(19-carboxynonadecanoylamino)m … (peptide)
peptide: H[Aib]EGTFTSDVSSYLEEQAAREFIAWLVRGRGAEAPK([code LysOEG-AEEA-γGlu-Trx-C20 diacid)(OEG-AEEA-γGlu-Trx-C20 diacid])
modifications: reading uncertain
notes: as for B1
B10: [Aib8,Glu22,Arg26,Arg34]-GLP-1-(7-37)-peptidyl-Ser-Ser-Gly-Ala-Pro-N{Epsilon}[(2S)-2,6-bis[[2-[2-[2-[[2-[2-[2-[[(4S)-4-carboxy-4-[[4-[(19-carboxynonadecanoylami … (peptide)
peptide: H[Aib]EGTFTSDVSSYLEEQAAREFIAWLVRGRGSSGAPK([Lys(Bis)-code 2xAEEA-AEEA-γGlu-Trx-C20 diacid])
modifications: reading uncertain
notes: as for B1
B11: [Aib8,Glu22,Arg26,Arg34]-GLP-1-(7-37)-peptidyl-Ser-Ser-Pro-Ala-Ala-N{Epsilon}[(2S)-2,6-bis[[2-[2-[2-[[2-[2-[2-[[(4S)-4-carboxy-4-[[4-[(19-carboxynonadecanoylami … (peptide)
peptide: H[Aib]EGTFTSDVSSYLEEQAAREFIAWLVRGRGSSPAAK([Lys(Bis)-code 2xAEEA-AEEA-γGlu-Trx-C20 diacid])
modifications: reading uncertain
notes: as for B1
B12: [Aib8,Glu22,Arg26,Arg34]-GLP-1-(7-37)-peptidyl-Ser-Ser-Glu-Ala-Glu-N{Epsilon}[(2S)-2,6-bis[[2-[2-[2-[[2-[2-[2-[[(4S)-4-carboxy-4-[[4-[(19-carboxynonadecanoylami … (peptide)
peptide: H[Aib]EGTFTSDVSSYLEEQAAREFIAWLVRGRGSSEAEK([Lys(Bis)-code 2xAEEA-AEEA-γGlu-Trx-C20 diacid])
modifications: reading uncertain
notes: as for B1
B13: [Aib8,Glu22,Arg26,Arg34]-GLP-1-(7-37)-peptidyl-Ser-Ser-Ala-Glu-Gly-N{Epsilon}[(2S)-2,6-bis[[2-[2-[2-[[2-[2-[2-[[(4S)-4-carboxy-4-[[4-[(19-carboxynonadecanoylami … (peptide)
peptide: H[Aib]EGTFTSDVSSYLEEQAAREFIAWLVRGRGSSAEGK([Lys(Bis)-code 2xAEEA-AEEA-γGlu-Trx-C20 diacid])
modifications: reading uncertain
notes: as for B1
B14: [Aib8,Glu22,Arg26,Arg34]-GLP-1-(7-37)-peptidyl-Gly-Gly-Ser-N{Epsilon}[(2S)-2,6-bis[[2-[2-[2-[[2-[2-[2-[[(4S)-4-carboxy-4-[[4-[(19-carboxynonadecanoylamino)methy … (peptide)
peptide: H[Aib]EGTFTSDVSSYLEEQAAREFIAWLVRGRGGGSK([code LysOEG-AEEA-γGlu-Trx-C20 diacid)(OEG-AEEA-γGlu-Trx-C20 diacid])
modifications: reading uncertain; also: printed as [Aib8,Glu22,Arg26,Arg34]-GLP-1-(7-37)-peptidyl-Gly-Gly-Ser-N{Epsilon}[(2S)-2,6-bis[[2-[2-[2-[[2-[2-[2-[[(4S)-4-carboxy-4-[[4-[(19-carboxynonadecanoylamino)methyl]cyclohexanecarbonyl]amino]butanoyl]amino]ethoxy]ethoxy]acetyl]amino]ethoxy]ethoxy]acetyl]amino]hexanoyl]Lys
notes: as for B1
B15: [Aib8,Glu22,Arg26,Arg34]-GLP-1-(7-37)-peptidyl-Pro-Ala-Glu-Glu-N{Epsilon}[(2S)-2,6-bis[[2-[2-[2-[[2-[2-[2-[[(4S)-4-carboxy-4-[[4-[(19-carboxynonadecanoylamino)m … (peptide)
peptide: H[Aib]EGTFTSDVSSYLEEQAAREFIAWLVRGRGPAEEK([Lys(Bis)-code 2xAEEA-AEEA-γGlu-Trx-C20 diacid])
modifications: reading uncertain
notes: as for B1
B16: [Aib8,Glu22,Arg26,Arg34]-GLP-1-(7-37)-peptidyl-Glu-Pro-Pro-Gly-N{Epsilon}[(2S)-2,6-bis[[2-[2-[2-[[2-[2-[2-[[(4S)-4-carboxy-4-[[4-[(19-carboxynonadecanoylamino)m … (peptide)
peptide: H[Aib]EGTFTSDVSSYLEEQAAREFIAWLVRGRGEPPGK([code LysOEG-AEEA-γGlu-Trx-C20 diacid)(OEG-AEEA-γGlu-Trx-C20 diacid])
modifications: reading uncertain
notes: as for B1

Biological target: T1, human GLP-1 receptor (human, UniProt P43220 24-463)
T1 construct: whole, on cells
Experiment: SPA competition vs 125I-GLP-1(7-36)NH2, hGLP-1R BHK membranes, low HSA
Procedure: (§1) For the receptor binding assay in the presence of low HSA (0.005%) 50 μl of the assay buffer was added to each well of an assay plate. […] For the receptor binding assay in the presence of high HSA (2%) 50 μl of the 8% albumin stock was added to each well of an assay plate. […] Cell membrane aliquots were thawed and diluted to their working concentration. Fifty μl were added to each well in the assay plate. […] WGA SPA beads were suspended in assay buffer at 20 mg/ml. The suspension was diluted to 10 mg/ml in assay buffer just prior to addition to the assay plate. Fifty μl were added to each well in the assay plate. […] A 25 μl aliquot was reserved for measuring total counts/well. […] The assay plate was incubated for 2 h at 30° C. […] The assay plate was centrifuged for 10 min. […] The assay plate was read in a Packard TopCount NXT instrument.

Binder | IC50
B1 | 1.64 nM
B2 | 0.61 nM
B3 | 0.45 nM
B4 | 0.91 nM
B5 | 0.9 nM
B6 | 0.57 nM
B7 | 0.76 nM
B8 | 0.74 nM
B9 | 1.7 nM
B10 | 0.99 nM
B11 | 4.8 nM
B12 | 3.1 nM
B13 | 3.2 nM
B14 | 1.93 nM
B15 | 2.9 nM
B16 | 2.9 nM

Biological target: T1, human GLP-1 receptor
Experiment: cell-based or functional assay

Binder | EC50 (pM), in vitro potency, CRE luciferase reporter gene assay in BHK cells expressing the human GLP-1 receptor
B1 | 94 pM
B2 | 44 pM
B3 | 25 pM
B4 | 16 pM
B5 | 70 pM
B6 | 12 pM
B7 | 55 pM
B8 | 51 pM
B9 | 13 pM
B10 | 99 pM
B11 | 22 pM
B12 | 19 pM
B13 | 12 pM
B14 | 87 pM
B15 | 14 pM
B16 | 15 pM

Biological target: T1, human GLP-1 receptor
Experiment: SPA competition vs 125I-GLP-1(7-36)NH2, hGLP-1R BHK membranes, high HSA (2.0%)
Procedure: as §1

Binder | IC50
B1 | 175 nM
B2 | 83 nM
B3 | 64 nM
B4 | 54 nM
B5 | 78 nM
B6 | 84 nM
B7 | 68 nM
B8 | 25 nM
B9 | 27 nM
B10 | 28 nM
B11 | 51 nM
B12 | 85 nM
B13 | 63 nM
B14 | 59 nM
B15 | 68 nM
B16 | 50 nM
